According to patent US20250289893A1 (OXFORD UNIVERSITY INNOVATION, published 2025):

What was measured:
[1] = target: T1, human CD1a expressed on cells (human, UniProt P06126 17-327; P61769 21-119); assay: flow cytometry, C1R cells, 0.316 µg/ml antibody
T1 construct: also called HEK - CD1a; C1R - CD1a
Procedure: (§1) Binding to proteins expressed on HEK, C1R and MOLT4 cell lines was assessed. […] The C1R-CD1a, C1R-empty vector and MOLT4 cell lines were washed in 1×PBS on the day required. All cell lines were counted and resuspended in 1×PBS and then stained for 30 minutes at 37° C. using the DiI or DiO cellular stains (Invitrogen). Cells were washed with flow cytometry buffer (1% bovine serum albumin, 2 mM EDTA and 0.1% sodium azide in PBS) before mixing 2 DiI-stained and DiO-stained populations together. The cells (20 μl/well) were then added to dilutions of antibody sample (B cell culture supernatant, TAP supernatant, clone supernatant, purified antibody solution) (20 μl/well) and incubated for 1 hour at 4° C. in a flow cytometry assay plate, before being washed with flow cytometry buffer. 10 μl/well of Alexafluor647-conjugated goat anti-species IgG Fc-specific F(ab′)2 fragment (Jackson ImmunoResearch), diluted 1:2500 in flow cytometry buffer, was added and incubated at 4° C. for 30 minutes, followed by washing with wash buffer. The fluorescence intensity was then measured on an iQue screener PLUS.
(§2) Binding was quantified as fold change in fluorescence intensity geomean over background assessed by flow cytometry.

[2] = target: T2, chimeric CD1a pool B protein [human CD1a lipid binding domain, mouse CD1d Ig domain] (human; mouse, UniProt P06126 18-201; P11609 205-297, limits assumed); assay: ELISA, 10 µg/ml antibody
T2 sequence (P06126 other isoform, or with tags, fused parts or gaps mutant limits assumed): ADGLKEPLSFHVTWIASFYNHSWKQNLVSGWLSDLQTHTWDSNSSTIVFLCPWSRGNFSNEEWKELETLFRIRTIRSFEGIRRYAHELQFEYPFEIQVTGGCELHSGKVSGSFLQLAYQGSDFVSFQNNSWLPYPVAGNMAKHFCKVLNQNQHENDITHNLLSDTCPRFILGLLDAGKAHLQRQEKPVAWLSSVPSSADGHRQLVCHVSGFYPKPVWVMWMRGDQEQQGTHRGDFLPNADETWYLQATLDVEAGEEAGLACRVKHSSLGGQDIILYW
Procedure: (§3) CD1a-specific antibodies were identified by ELISA. […] 20 μl/well of peroxidase-conjugated goat anti-species IgG Fc-specific F(ab′)2 fragment (Jackson ImmunoResearch), diluted 1:5000 in block buffer was added and incubated at room temperature for 1 hour, followed by washing with wash buffer.
(§4) The antibodies were titrated through a dilution series and compared to a control rabbit IgG antibody. […] Data shown for purified antibodies.

[3] = target: T2, chimeric CD1a pool B protein [human …; assay: ELISA, 0.1 µg/ml antibody
Procedure: as §3, §4

[4] = target: T3, human CD1c expressed on HEK-293 cells (human, UniProt P29017 18-333; P61769 21-119); assay: flow cytometry, HEK-293 cells, 100 µg/ml antibody
T3 construct: also called HEK - CD1c
Procedure: as §1
(§5) HEK-293 cells were transiently transfected with human CD1a, CD1b, CD1c or CD1d and co-transfected with human β2M.

[5] = target: T4, human CD1b expressed on HEK-293 cells (human, UniProt P29016 18-333; P61769 21-119); assay: flow cytometry, HEK-293 cells, 100 µg/ml antibody
T4 construct: also called HEK - CD1b
Procedure: as §1, §5

[6] = target: T5, human CD1d expressed on HEK-293 cells (human, UniProt P15813 20-335; P61769 21-119); assay: flow cytometry, HEK-293 cells, 100 µg/ml antibody
T5 construct: also called HEK - CD1d
Procedure: as §1, §5

[7] = target: T1, human CD1a expressed on cells; assay: flow cytometry, HEK-293 cells, 100 µg/ml antibody
Procedure: as §1, §5

[8] = target: T1, human CD1a expressed on cells; assay: flow cytometry, C1R cells, 3.16 µg/ml antibody
Procedure: as §1, §2

[9] = target: T1, human CD1a expressed on cells; assay: flow cytometry, MOLT4 cells, 3.16 µg/ml antibody
Procedure: (§6) CD1a-specific antibodies were identified by flow cytometry. Binding to proteins expressed on HEK, C1R and MOLT4 cell lines was assessed. […] The C1R-CD1a, C1R-empty vector and MOLT4 cell lines were washed in 1×PBS on the day required. All cell lines were counted and resuspended in 1×PBS and then stained for 30 minutes at 37° C. using the DiI or DiO cellular stains (Invitrogen). Cells were washed with flow cytometry buffer (1% bovine serum albumin, 2 mM EDTA and 0.1% sodium azide in PBS) before mixing 2 DiI-stained and DiO-stained populations together. The cells (20 μl/well) were then added to dilutions of antibody sample (B cell culture supernatant, TAP supernatant, clone supernatant, purified antibody solution) (20 μl/well) and incubated for 1 hour at 4° C. in a flow cytometry assay plate, before being washed with flow cytometry buffer. 10 μl/well of Alexafluor647-conjugated goat anti-species IgG Fc-specific F(ab′)2 fragment (Jackson ImmunoResearch), diluted 1:2500 in flow cytometry buffer, was added and incubated at 4° C. for 30 minutes, followed by washing with wash buffer. The fluorescence intensity was then measured on an iQue screener PLUS.
as §2

[10] = target: T2, chimeric CD1a pool B protein [human …; assay: ELISA, 100 µg/ml antibody
Procedure: as §3, §4

[11] = target: T1, human CD1a expressed on cells; assay: flow cytometry, C1R cells, 100 µg/ml antibody
Procedure: as §1, §2

[12] = target: T6, human CD1a protein (pool B) (human, UniProt P06126 18-295, limits assumed); assay: ELISA, 31.6 µg/ml antibody
T6 construct: Recombinant protein of the ELISA (coated) and the Biacore T200 titration; whole entry named; also called human CD1a pool B; full length CD1a
T6 sequence (P06126 18-295 limits assumed): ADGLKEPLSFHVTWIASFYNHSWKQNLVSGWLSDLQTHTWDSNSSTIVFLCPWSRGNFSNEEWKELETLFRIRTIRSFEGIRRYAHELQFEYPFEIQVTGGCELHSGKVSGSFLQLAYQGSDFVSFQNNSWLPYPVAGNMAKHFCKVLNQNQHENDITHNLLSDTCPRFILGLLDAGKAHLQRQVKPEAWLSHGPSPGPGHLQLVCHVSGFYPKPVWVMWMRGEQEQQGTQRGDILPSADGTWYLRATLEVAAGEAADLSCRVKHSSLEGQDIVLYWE
Procedure: as §3
(§7) The antibodies were titrated through a dilution series and compared to a control rabbit IgG antibody.

[13] = target: T6, human CD1a protein (pool B); assay: ELISA, 100 µg/ml antibody
Procedure: as §3, §7

[14] = target: T1, human CD1a expressed on cells; assay: flow cytometry, MOLT4 cells, 100 µg/ml antibody
Procedure: as §6, §2

[15] = target: T3, human CD1c expressed on HEK-293 cells; assay: flow cytometry, HEK-293 cells, 3.16 µg/ml antibody
Procedure: as §1, §5

[16] = target: T4, human CD1b expressed on HEK-293 cells; assay: flow cytometry, HEK-293 cells, 3.16 µg/ml antibody
Procedure: as §1, §5

[17] = target: T5, human CD1d expressed on HEK-293 cells; assay: flow cytometry, HEK-293 cells, 3.16 µg/ml antibody
Procedure: as §1, §5

[18] = target: T1, human CD1a expressed on cells; assay: flow cytometry, HEK-293 cells, 3.16 µg/ml antibody
Procedure: as §1, §5

[19] = target: T3, human CD1c expressed on HEK-293 cells; assay: flow cytometry, HEK-293 cells, 10 µg/ml antibody
Procedure: as §1, §5

[20] = target: T4, human CD1b expressed on HEK-293 cells; assay: flow cytometry, HEK-293 cells, 10 µg/ml antibody
Procedure: as §1, §5

[21] = target: T5, human CD1d expressed on HEK-293 cells; assay: flow cytometry, HEK-293 cells, 10 µg/ml antibody
Procedure: as §1, §5

[22] = target: T1, human CD1a expressed on cells; assay: flow cytometry, HEK-293 cells, 10 µg/ml antibody
Procedure: as §1, §5

[23] = target: T3, human CD1c expressed on HEK-293 cells; assay: flow cytometry, HEK-293 cells, 0.316 µg/ml antibody
Procedure: as §1, §5

[24] = target: T4, human CD1b expressed on HEK-293 cells; assay: as above
Procedure: as §1, §5

[25] = target: T5, human CD1d expressed on HEK-293 cells; assay: as above
Procedure: as §1, §5

[26] = target: T1, human CD1a expressed on cells; assay: as above
Procedure: as §1, §5

B1: 116 (VR12117) (antibody, V domains shown)
VH: QSVEESGGRLVTPGTPLTLTCTVSGFSLSNYAMSWVRQAPGKGLEWIGIIYTTGFTYYASWVKGRFTISKTSTTVDLKITSPTTEDTATYFCARGLATYVSPPTRLDLWGQGTLVTVSS
VL: AQVLTQTPSPVSAAVGGTVTINCQASQSIYNSKNLAWYQQKPGQPPKLLIYSASTLASGVPSRFKGSGSGTQFTLTISDLECDDAATYYCQGEFSCSSVDCATFGGGTEVVVK
notes: also called OX116
Fluorescence Intensity Geomean (normalized to background) [1]: 27.5 fold over background | Optical Density (OD) [2]: 1.4 OD | Optical Density (OD) [3]: 1.25 OD | Fluorescence Intensity Geomean (normalized to background) [4]: 1 fold over background | Fluorescence Intensity Geomean (normalized to background) [5]: 1.1 fold over background | Fluorescence Intensity Geomean (normalized to background) [6]: 1 fold over background | Fluorescence Intensity Geomean (normalized to background) [7]: 3.9 fold over background | Fluorescence Intensity Geomean (normalized to background) [8]: 24 fold over background | Fluorescence Intensity Geomean (normalized to background) [9]: 23.9 fold over background | Optical Density (OD) [10]: 1.37 OD | Fluorescence Intensity Geomean (normalized to background) [11]: 11.9 fold over background | Optical Density (OD) [12]: 1.16 OD | Optical Density (OD) [13]: 1.15 OD | Fluorescence Intensity Geomean (normalized to background) [14]: 3.7 fold over background | Fluorescence Intensity Geomean (normalized to background) [15]: 1.1 fold over background | Fluorescence Intensity Geomean (normalized to background) [16]: 1 fold over background | Fluorescence Intensity Geomean (normalized to background) [17]: 1.1 fold over background | Fluorescence Intensity Geomean (normalized to background) [18]: 21.9 fold over background | Fluorescence Intensity Geomean (normalized to background) [19]: 1.1 fold over background | Fluorescence Intensity Geomean (normalized to background) [20]: 1 fold over background | Fluorescence Intensity Geomean (normalized to background) [21]: 1.1 fold over background | Fluorescence Intensity Geomean (normalized to background) [22]: 12.6 fold over background | Fluorescence Intensity Geomean (normalized to background) [23]: 1.1 fold over background | Fluorescence Intensity Geomean (normalized to background) [24]: 1 fold over background | Fluorescence Intensity Geomean (normalized to background) [25]: 1 fold over background | Fluorescence Intensity Geomean (normalized to background) [26]: 36.5 fold over background
